{"source": "the supplement of paper PMC12042874", "note": "± gives the uncertainty stated by the source."}
{"test": "amyloid nucleation score (Sup35N fusion, yeast selection) (log enrichment); library NNK2; higher = more nucleation; inactive = no reads after selection", "procedure,_shortened": "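Plasmid inserts were Illumina-sequenced at input and output from psi-negative yeast expressing Sup35N fused to peptides of 20 random codons. The yeast were induced with 100 μM copper sulfate for 24 hours and grown 7 days at 30°C on medium lacking adenine and uracil, and sequences with under 100 input reads were excluded. Nucleation score is the DiMSum log enrichment of output over input reads, centred on the mode score of non-aggregating sequences.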"}
{"substance": "RIVVYMSLCQCL", "amyloid nucleation score": "8.609 ± 0.076"}
{"substance": "RIWYY", "amyloid nucleation score": "inactive"}
{"substance": "RIYFVEFMESWWGVGSLKEV", "amyloid nucleation score": "3.51 ± 0.094"}
{"substance": "RIYLVAIYL", "amyloid nucleation score": "3.49 ± 0.067"}
{"substance": "RKCLGLRSYATTFRVDQHSC", "amyloid nucleation score": "0.266 ± 0.3"}
{"substance": "RKGSNDYPFWPAVVWHPLPA", "amyloid nucleation score": "0.753 ± 0.4"}
{"substance": "RKISMTN", "amyloid nucleation score": "-0.573 ± 0.3"}
{"substance": "RKRVVSQEPCL", "amyloid nucleation score": "-0.996 ± 0.78"}
{"substance": "RKVFLRLCLLVWLNG", "amyloid nucleation score": "-0.292 ± 0.3"}
{"substance": "RKVLWKSDTSSLLNEWSIAH", "amyloid nucleation score": "-0.178 ± 0.49"}
{"substance": "RKVPVR", "amyloid nucleation score": "inactive"}
{"substance": "RLELVTVVSVSMHDLRHRRR", "amyloid nucleation score": "4.75 ± 0.071"}
{"substance": "RLHKTSNITTWIAHPLHNR", "amyloid nucleation score": "-0.038 ± 0.65"}
{"substance": "RLIYCVVGRCCNCSFYFTRM", "amyloid nucleation score": "2.75 ± 0.09"}
{"substance": "RLIYLCGSRGPNTEFVRVKR", "amyloid nucleation score": "3.21 ± 0.055"}
{"substance": "RLLNPRVSKVWICAHNARDL", "amyloid nucleation score": "1.1 ± 0.24"}
{"substance": "RLLTSHD", "amyloid nucleation score": "4.12 ± 0.089"}
{"substance": "RLMQSVMCRRDLLL", "amyloid nucleation score": "0.883 ± 0.47"}
{"substance": "RLNALLVWFVRVSMALVRES", "amyloid nucleation score": "-0.661 ± 1.1"}
{"substance": "RLRKFESLLICDRISIIVRY", "amyloid nucleation score": "0.621 ± 0.56"}
{"substance": "RLSFNWSLKSYMLPLESSVV", "amyloid nucleation score": "-0.079 ± 0.55"}
{"substance": "RLTVRWAYMSLLTVGQGGIM", "amyloid nucleation score": "0.21 ± 1"}
{"substance": "RLTVTGVALVFKGFAAEYGL", "amyloid nucleation score": "5.81 ± 0.066"}
{"substance": "RLVFVFITDG", "amyloid nucleation score": "2.96 ± 0.054"}
{"substance": "RLYCQRFPRFENITIWELLL", "amyloid nucleation score": "-1.71 ± 0.54"}
{"substance": "RMGCLFCRESNWILSFYSVS", "amyloid nucleation score": "5.87 ± 0.074"}
{"substance": "RMLADGVTLVPCWALQL", "amyloid nucleation score": "0.57 ± 0.43"}
{"substance": "RMRLPPFPIDWSDAYLFWHS", "amyloid nucleation score": "1.28 ± 0.38"}
{"substance": "RMVKLDDNVKYYVKSVEGYE", "amyloid nucleation score": "0.276 ± 0.6"}
{"substance": "RMVLSGNLLQRNRNYPNQRM", "amyloid nucleation score": "2.03 ± 0.079"}
{"substance": "RMVSPSPMAQNKLGYATTLG", "amyloid nucleation score": "0.02 ± 0.49"}
{"substance": "RNAEA", "amyloid nucleation score": "-0.5 ± 0.63"}
{"substance": "RNGVLAIGLY", "amyloid nucleation score": "-0.759 ± 0.63"}
{"substance": "RNHFLLCFLRCNEEYAQVRG", "amyloid nucleation score": "3.69 ± 0.059"}
{"substance": "RNITVTIFCLTAHRA", "amyloid nucleation score": "9.317 ± 0.054"}
{"substance": "RNLTFYKTSPVGRC", "amyloid nucleation score": "0.712 ± 0.4"}
{"substance": "RNSIFNG", "amyloid nucleation score": "-0.796 ± 0.62"}
{"substance": "RNWPVIVVWAKTGCQCSFLM", "amyloid nucleation score": "-0.544 ± 0.36"}
{"substance": "RPLFEFWPKPPL", "amyloid nucleation score": "2.17 ± 0.14"}
{"substance": "RPNSSIVLLYPFKMRPFES", "amyloid nucleation score": "inactive"}
{"substance": "RPTAIPAHLIVFSEFCEAEW", "amyloid nucleation score": "0.739 ± 0.45"}
{"substance": "RPVCKFL", "amyloid nucleation score": "0.275 ± 0.5"}
{"substance": "RQARRRRTSRQHEKGV", "amyloid nucleation score": "1.49 ± 0.16"}
{"substance": "RQLAQQYAHAFGYIFHSLYL", "amyloid nucleation score": "1.19 ± 0.4"}
{"substance": "RQMDHYQRGFLIIYCQLTDK", "amyloid nucleation score": "inactive"}
{"substance": "RRAENLMEFGLIRAFY", "amyloid nucleation score": "-0.007 ± 0.63"}
{"substance": "RRDNPWLSHVIW", "amyloid nucleation score": "1.06 ± 0.33"}
{"substance": "RREDKLICRFIDVNLEVDW", "amyloid nucleation score": "2.72 ± 0.066"}
{"substance": "RRFCSCQLSKPLIFPMVLYW", "amyloid nucleation score": "-0.454 ± 0.53"}
{"substance": "RRGNLGDAMNNMARFCSYSF", "amyloid nucleation score": "inactive"}
{"substance": "RRKVCYTSQVRRLVNQRNVS", "amyloid nucleation score": "-1.11 ± 0.34"}
{"substance": "RRLFSVKIAYLCDT", "amyloid nucleation score": "2.63 ± 0.2"}
{"substance": "RRLLLLGSFWGSVHQHVTSS", "amyloid nucleation score": "-0.207 ± 0.4"}
{"substance": "RRLSGSFLRDYVNPWIQRSS", "amyloid nucleation score": "-0.277 ± 0.42"}
{"substance": "RRMMRP", "amyloid nucleation score": "2.2 ± 0.4"}
{"substance": "RRMNHLPFCCKRYRTSRPKF", "amyloid nucleation score": "0.222 ± 0.64"}
{"substance": "RRMVMVSANVSLIEQHYCRN", "amyloid nucleation score": "5.552 ± 0.042"}
{"substance": "RRNNTGKHFWDWETREGFSM", "amyloid nucleation score": "-0.931 ± 1.1"}
{"substance": "RRPFVRRLFVLKNMFNSLGR", "amyloid nucleation score": "-0.707 ± 1.1"}
{"substance": "RRPKHYMAVMSESVGLQCRL", "amyloid nucleation score": "0.173 ± 0.37"}
{"substance": "RRRGVLLTRPLKRQLVK", "amyloid nucleation score": "inactive"}
{"substance": "RRTVQWVWAVYIV", "amyloid nucleation score": "-0.803 ± 0.45"}
{"substance": "RRVGRYESWRNFSNEI", "amyloid nucleation score": "-0.835 ± 0.27"}
{"substance": "RRVTRKVVGPRNYAYEKYFW", "amyloid nucleation score": "3.28 ± 0.06"}
{"substance": "RRWEL", "amyloid nucleation score": "0.687 ± 0.34"}
{"substance": "RSCATFIFVMS", "amyloid nucleation score": "4.98 ± 0.073"}
{"substance": "RSEDGRGGSKGQIIRVVMNW", "amyloid nucleation score": "4.76 ± 0.062"}
{"substance": "RSENSILHVLHRFVA", "amyloid nucleation score": "-0.559 ± 0.64"}
{"substance": "RSFGLSDPIKTTGKTSV", "amyloid nucleation score": "inactive"}
{"substance": "RSFLLVLAELCFT", "amyloid nucleation score": "4.22 ± 0.12"}
{"substance": "RSGLLDMS", "amyloid nucleation score": "-0.129 ± 1.1"}
{"substance": "RSGNRGPVARYVGYERCMGK", "amyloid nucleation score": "0.629 ± 0.56"}
{"substance": "RSLFKLTENCCIIVSWASDN", "amyloid nucleation score": "8.848 ± 0.057"}
{"substance": "RSLIFLNWGYSV", "amyloid nucleation score": "3.59 ± 0.056"}
{"substance": "RSRSGVLVERFMAVSWDAWH", "amyloid nucleation score": "5.691 ± 0.051"}
{"substance": "RSSGSSWRLNYLDEDTVVAR", "amyloid nucleation score": "1 ± 0.4"}
{"substance": "RSSLIIALCWFR", "amyloid nucleation score": "5.54 ± 0.059"}
{"substance": "RSTPLKYNLRFIPLSHGRRV", "amyloid nucleation score": "-0.431 ± 0.48"}
{"substance": "RSVALARLMFVPLTLDSV", "amyloid nucleation score": "0.264 ± 0.2"}
{"substance": "RSVSGMVWE", "amyloid nucleation score": "0.21 ± 0.74"}
{"substance": "RSVSNDKYVFWFLRLVDVKA", "amyloid nucleation score": "0.225 ± 0.26"}
{"substance": "RSVSTTHRCRTTLKTSNYCL", "amyloid nucleation score": "0.778 ± 0.67"}
{"substance": "RSWVLLSYAPFHCS", "amyloid nucleation score": "0.482 ± 0.19"}
{"substance": "RSYFSDFH", "amyloid nucleation score": "inactive"}
{"substance": "RSYQMSGPIALRKWEEEWAE", "amyloid nucleation score": "0.611 ± 0.46"}
